Substitutions are numbered along the chain they refer to. Values belong to the binder of their own block, whether it stands above or below them.
Biological target: T1, Soluble CTLA-4-Ig (extracellular domain of human CTLA-4 fused to the Fc portion of human IgG1) (human, UniProt P16410 36-161, FITC-conjugated in the FACS binding assays)
T1 construct: extracellular domain; bought from R&D Systems; also called sCTLA-4-Ig; CTLA-4-Ig Fc; not shown: Fc portion of human IgG1
Assay: competitive FACS on transfected cells, FITC-sCTLA-4-Ig with biotin-sCD28-Ig; grade 0-2 of CTLA-4/CD28 ratio vs WT hB7-1

T1 sequence (P16410 36-161): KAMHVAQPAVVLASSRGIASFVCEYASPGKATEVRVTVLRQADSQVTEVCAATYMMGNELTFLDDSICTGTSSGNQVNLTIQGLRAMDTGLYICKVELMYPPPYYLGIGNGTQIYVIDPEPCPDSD

- Binding Score: 2
B1: Round 1 (R1) CTLA4BP-5 (ligand)
chain: VIHVTKEVKEVATLSCGHNVSVEELAQTRIHWQKEKKMVLTMMSGDMNIWPEYKNRTIFDITNNLSIVILALRPSDEGTYECVVLKYEKDAFKREHLAEVTLSVKADFPTPSISDFEIPPSNIRRIICSTSGGFPEPHLSWLENGEELNAINTTVSQDPGTELYTVSSKLDFNMTTNHSFMCLIKYGHLRVNQTFNWNTPKQEHFPDNLLPSWAITLISVNGIFVICCLTYCFAPRCRERRRNERLRRESVRPV
notes: also called R1-5

- Binding Score: 1
B5: Round 2 CTLA4BP 2x1-f10 (ligand)
chain: B1 chain with T101M, S114T, H138R, S140A, L142M, N144D, T165A, F224S, R252C

- Binding Score: 1
B7: Round 2 CTLA4BP 2x1-c4 (ligand)
chain: B1 chain with S15P, T101M, S114T, S140F, T165A, S179N

- Binding Score: 0
B9: Round 2 CTLA4BP 5x2-e12 (ligand)
chain: B1 chain with D46G, P120T, N152S, T165A, H178R, M181V, P200T

- Binding Score: 1
B13: Round 1 CTLA4BP-27 (ligand)
chain: B1 chain with H18L, H31Y, T101M, G160E, T176A, M181V, R245T
notes: also called R1-27; R1 CTLA-4BP-27

- Binding Score: 1
B18: Round 2 CTLA4 A-B11-5 (ligand)
chain: ITPKSATKRVKETVMLSCDYSTSTEELTSLRIYWQKDSKMVLAILPGKVQVWPEYKNRTITDMNDNPRIVILALRLSDSGTYTCVIQKPDLKGAYKLEHLTSVRLMIRADFPVPTINDLGNPSPNIRRLICSTSGGFPRPHLYWLENGEELNATNTTLSQDPETKLYMISSELDFNMTSNHSFLCLVKYGDLTVSQTFYWQESKPTPSANQHLTWTIIIPVSAFGISVIIAVILTCLTCRNAAIRRQRRENEVEMQSCSQSP

Further lines, the binder ahead of its results:

B2: Round 1 CTLA4BP-13 (ligand)
chain: VIHVTKEVKEVATLSCGHNVSVEELAQTRIYWQKEKKMVLTMMSGDMNIWPEYKNRTIFDITNNLSIVILALRPSDEGTYECVVLKYEKDAFKREHLAEVTLSVKADFPTPSISDFEIPTSNIRRIICSTSGGFPEPHLFGLENGEEINAINTTASQDPETELYTVSSKLDFNMTPNRSFVCLIKYGHLRVNQTFNWNTPKQEHFPDNLLPSWAITLISANGIFVICCLTYCFAPRCRERKSNERLRRESVRPV
notes: also called R1-13; R1 CTLA-4BP-13
- Binding Score: 1

B3: Round 2 CTLA4BP 2x4-h11 (ligand)
chain: B1 chain with H31Y, K86E, T101M, T165A, T230A, E239G
- Binding Score: 0

B4: Round 1 CTLA4BP-11 (ligand)
chain: B1 chain with V4M, H31Y, T101M, S114T, S140F, G160E, T165A, P200T, Y231H, R252H
notes: also called R1-11; R1 CTLA-4BP-11
- Binding Score: 1

B6: Round 2 CTLA4BP 5x2-d7 (ligand)
chain: B1 chain with V4M, H18L, T101M, G160E, E162G
- Binding Score: 1

B8: Round 2 CTLA4BP 2x2-f12 (ligand)
chain: B1 chain with E81G, K86E, T101M, G160E, T165A, V191A
- Binding Score: 1

B10: Round 2 CTLA4BP 2x1-b12 (ligand)
chain: VIHMTKEVKEVATLSCGHNVSVEELAQTRIYWQKEKKMVLTMMSGDMNIWPEYKNRTIFDITNNLSIVILALRPSDEGTYECVALKYEKDAFKQEHLAEVTLSVKADFPTPSISDFEIPPSNIRRIICSTSGGFPEPRLAWMEDGEELNAINTTVSQDPETELYTVSSKLDFNMTANHSFMCLIKYGHLRVNQTFNWNTPKQEHFPDNLLPSWAITLISVNGIFVICCLTYCFAPRCRERRRNERLRRESVCPV
- Binding Score: 1

B11: Round 2 CTLA4BP 2x2-f1 (ligand)
chain: B1 chain with P74L, P120T, S140F, V155A, G160E, H178R, M181V
- Binding Score: 1

B12: Round 2 CTLA4BP 5x2-b7 (ligand)
chain: B1 chain with S114T, T176A, M181V, V220A
- Binding Score: 1

B14: Round 2 CTLA4BP 2x1-g8 (ligand)
chain: B1 chain with I67V, S114T, H178R, M181V, R241K, R242S
- Binding Score: 1

B15: Round 2 CTLA4BP 5x1-f1 (ligand)
chain: B1 chain with H18L, H31Y, Y53H, S114T, S140F, V155A, G160E, T176A, M181V, R245T
- Binding Score: 1

B16: Round 2 CTLA4BP 5x1-d7 (ligand)
chain: VIHVTKEVKEVATLSCGHNVPVEELAQTRIYWQKEKKMVLTMMSGDMNIWPEYKNRTIFDITNNLSIVILALRPSDEGTYGCVVLEYEKDAFKREHLAEVMLSVKADFPTPSITDLEIPPSNIRRIICSTSGGFPEPHLFWLENGEELNAINTTASQDPETELYAVSSKLDFNMTTNHSFMCLIKYGHLRVNQTFNWNTPKQEHFPDNLLPSWAITLISANGIFVICCLTYCFAPRCRERRRNERLRRESVHPV
- Binding Score: 1

B17: Round 2 CTLA4BP 2x1-h12 (ligand)
chain: B1 chain with H18L, T101M, S114T, V220A, R241K, R242S, R252C
- Binding Score: 1

B19: Round 2 CTLA4 A-G8-1 (ligand)
chain: B18 chain with A6V, S21N, R75P
- Binding Score: 1

B20: Round 2 CTLA4 A-F6-9 (ligand)
chain: B18 chain with A6V
- Binding Score: 1

Source: patent US20100261660A1 (published 2010)
